Reference: patent publication US20200299396A1

Target: human TNFR1 on the cellular surface of HeLa, HT1080 and Kym-1 cells (human) (UniProt P19438)
Experiment: cell-based or functional assay

human TNFR1 on the cellular surface of HeLa, HT1080 and Kym-1 cells (human), sequence (P19438 30-455 limits assumed): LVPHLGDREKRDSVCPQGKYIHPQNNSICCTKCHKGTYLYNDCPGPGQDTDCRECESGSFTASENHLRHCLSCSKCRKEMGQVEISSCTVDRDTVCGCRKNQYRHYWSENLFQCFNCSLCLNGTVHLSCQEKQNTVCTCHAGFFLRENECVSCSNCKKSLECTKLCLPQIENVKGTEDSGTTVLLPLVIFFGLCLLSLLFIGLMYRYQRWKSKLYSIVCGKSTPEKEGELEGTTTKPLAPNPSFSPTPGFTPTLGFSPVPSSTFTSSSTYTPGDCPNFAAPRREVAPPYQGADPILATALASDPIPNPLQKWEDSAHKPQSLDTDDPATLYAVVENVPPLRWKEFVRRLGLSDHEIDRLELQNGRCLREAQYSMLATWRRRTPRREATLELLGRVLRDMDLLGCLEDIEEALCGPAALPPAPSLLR

ATROSAB (antibody) was tested, and the IC50, Cell death induction [nM] (Kym-1 cells, TNF-induced) was 64.4 nM, the IC50, IL-6 [nM] (IL-6 release from HeLa cells, 0.1 nM TNF) was 165 nM and the IC50, IL-8 [nM] (IL-8 release from HT1080 cells, 0.1 nM TNF) was 84.1 nM.
